{"source": "paper doi:10.1101/2025.07.11.664294", "about": "(2025)", "target": "Neuropilin-1 (NRP-1) 22-644 (Homo sapiens, UniProt O14786)", "sequence (O14786 22-644)": "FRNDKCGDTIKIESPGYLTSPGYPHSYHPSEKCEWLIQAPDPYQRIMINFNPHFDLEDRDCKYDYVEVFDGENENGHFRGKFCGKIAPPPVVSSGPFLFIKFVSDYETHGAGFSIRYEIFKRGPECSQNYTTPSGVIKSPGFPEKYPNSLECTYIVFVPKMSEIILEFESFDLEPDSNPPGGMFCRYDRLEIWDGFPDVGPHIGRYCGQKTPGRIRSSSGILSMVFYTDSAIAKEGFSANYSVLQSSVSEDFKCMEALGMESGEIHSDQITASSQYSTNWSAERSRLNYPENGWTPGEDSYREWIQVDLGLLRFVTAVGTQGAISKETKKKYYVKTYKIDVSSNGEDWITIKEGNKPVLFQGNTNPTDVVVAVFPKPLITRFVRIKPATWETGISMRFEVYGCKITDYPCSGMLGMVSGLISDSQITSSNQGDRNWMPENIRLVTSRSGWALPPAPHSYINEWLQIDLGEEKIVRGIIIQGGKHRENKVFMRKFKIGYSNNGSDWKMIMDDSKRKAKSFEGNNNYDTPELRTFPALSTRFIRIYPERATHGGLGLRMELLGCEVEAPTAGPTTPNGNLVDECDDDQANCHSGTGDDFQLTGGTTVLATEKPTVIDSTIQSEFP", "test": "SPR", "note": "Bridges are numbered along the chain shown (N, C = ends).", "data": [{"binder": "Ac-KCYGPQCL-NH2 (disulfide 2-7; SMILES CC(=O)N[C@@H](CCCCN)C(=O)N[C@H]1CSSC[C@@H](C(=O)N[C@@H](CC(C)C)C(N)=O)NC(=O)[C@H](CCC(N)=O)NC(=O)[C@@H]2CCCN2C(=O)CNC(=O)[C@H](Cc2ccc(O)cc2)NC1=O)", "note": "[P78 (Ctx fragment) 27-34]", "values": [{"measurement": "Kd", "value": 267, "unit": "µM"}]}]}
